Results reported in patent publication US7595173B2, “Low-cost production of peptides” (Dow Global Technologies Inc., priority 2002, dated 2009).

B1: 4A dimer: dimer having two D2A21 antimicrobial peptides connected by the Gly-Asp/Pro cleavage sequence, with leader and His-tag trailer (protein)
chain: MASMTGGQQMGRDPFAKKFAKKFKKFAKKFAKFAFAFGDPFAKKFAKKFKKFAKKFAKFAFAFGDPNSSSVDKLAAALEHHHHHH
modifications: Amino acid sequence of the 4A dimer.
B2: AB4: trimer comprising a leader segment, three AMPs each separated by a tripeptide linker, and a trailer segment (protein)
chain: MASMTGGQQMGRDPFAKKFAKKFKKFAKKFAKFAFAFGDPFAKKFAKKFKKFAKKFAKFAFAFGDPFAKKFAKKFKKFAKKFAKFAFAFGDPSRRSLRKSSRNLPRSLPSSHSRSVIRIRAPSTSLRPHSSTTTTTTEIRLLTKPERKLSWLLPPLSNN
modifications: Amino acid sequence of the AB4 trimer.

Test system: E. coli strain BL21 (DE3)
Experiment: Antimicrobial activity: dose-dependent inhibition of E. coli growth (standard growth inhibition assay)
Assay type: cell-based
Description: The antimicrobial activity of the cleaved peptides (same samples from Examples 5 and 6) was determined by measuring the dose-dependent inhibition of E. coli growth. The samples were tested for their ability to inhibit the growth of an overnight culture inoculated with E. coli strain BL21 (DE3). AMP samples were diluted serially into water in 96 well plates. Overnight cultures of E. coli BL21 (DE3) cells were diluted 1:50 into LB broth and 250 μl aliquots were transferred into 96-well plates. Each plate was incubated at 37° C. for one hour and then 50 μl of diluted peptide (or water) were added to each well. Each plate was incubated overnight at 37° C. and then the culture density was determined by measuring the apparent absorbance at 600 nm using a Spectromax Plus plate reader.

Row | Molecule | antimicrobial activity (Ni-purified, dialyzed, uncleaved dimer) | antimicrobial activity (after 50% formic acid treatment, 70° C., 24 hours) | antimicrobial activity (water-treated (control), 70° C., 24 hours) | antimicrobial activity of cleaved trimer (digested with formic acid at 60° C.)
1 | B1 | no detectable antimicrobial activity | significant antimicrobial activity | no activity | 
2 | B2 |  |  |  | potent antimicrobial activity
